The nature of this data set: storage stability of HA-6-MTX checked by repeated NMR spectrum. Format: physicochemical. The note with it: 3-months storage at room temperature; compared with freshly prepared product. Here is the method:
A solution of HA-OMs:TBA salt from Example 10 (500 mg; 0.73 mmol) in DMSO (15 ml) was treated with a solution of methotrexate (833 mg; 1.83 mmol) in DMSO (10 ml) in the presence of solid cesium carbonate (596 mg; 1.83 mmol). The mixture was stirred under nitrogen at 80° C. for 18 h, whereupon it darkened with formation of solids. It was then cooled to ambient temperature, poured into 100 ml of water (pH 6.5), treated with 15 ml of saturated NaCl solution, and stirred for 1.5 h. Then solids were filtered off and the solution was ultrafiltered, concentrated and freeze-dried to give 131 mg of a yellow-brownish solid. […] HPLC analysis gave 32% w/w, corresponding to 40% mol/mol.

As to “6-O-Methotrexylhyaluronic Acid [Example 24]”, the “NMR spectrum repeated on the same sample after storage (stability of substitution degree)” value was “the substitution degree is maintained and no by-products are formed”.
